{
  "source": "patent US8962819B2",
  "about": "“Anti-C5 alpha antibodies” (Adienne S.A., priority 2002, dated 2015)",
  "key": {"[1]": {"molecular_target": "T1, C5 (Homo sapiens, UniProt P01031)", "T1 construct": "C5 alpha and beta subunits were obtained by incubating 50 μg of C5; purchased Quidel", "T1 sequence (P01031 678-1676 limits assumed)": "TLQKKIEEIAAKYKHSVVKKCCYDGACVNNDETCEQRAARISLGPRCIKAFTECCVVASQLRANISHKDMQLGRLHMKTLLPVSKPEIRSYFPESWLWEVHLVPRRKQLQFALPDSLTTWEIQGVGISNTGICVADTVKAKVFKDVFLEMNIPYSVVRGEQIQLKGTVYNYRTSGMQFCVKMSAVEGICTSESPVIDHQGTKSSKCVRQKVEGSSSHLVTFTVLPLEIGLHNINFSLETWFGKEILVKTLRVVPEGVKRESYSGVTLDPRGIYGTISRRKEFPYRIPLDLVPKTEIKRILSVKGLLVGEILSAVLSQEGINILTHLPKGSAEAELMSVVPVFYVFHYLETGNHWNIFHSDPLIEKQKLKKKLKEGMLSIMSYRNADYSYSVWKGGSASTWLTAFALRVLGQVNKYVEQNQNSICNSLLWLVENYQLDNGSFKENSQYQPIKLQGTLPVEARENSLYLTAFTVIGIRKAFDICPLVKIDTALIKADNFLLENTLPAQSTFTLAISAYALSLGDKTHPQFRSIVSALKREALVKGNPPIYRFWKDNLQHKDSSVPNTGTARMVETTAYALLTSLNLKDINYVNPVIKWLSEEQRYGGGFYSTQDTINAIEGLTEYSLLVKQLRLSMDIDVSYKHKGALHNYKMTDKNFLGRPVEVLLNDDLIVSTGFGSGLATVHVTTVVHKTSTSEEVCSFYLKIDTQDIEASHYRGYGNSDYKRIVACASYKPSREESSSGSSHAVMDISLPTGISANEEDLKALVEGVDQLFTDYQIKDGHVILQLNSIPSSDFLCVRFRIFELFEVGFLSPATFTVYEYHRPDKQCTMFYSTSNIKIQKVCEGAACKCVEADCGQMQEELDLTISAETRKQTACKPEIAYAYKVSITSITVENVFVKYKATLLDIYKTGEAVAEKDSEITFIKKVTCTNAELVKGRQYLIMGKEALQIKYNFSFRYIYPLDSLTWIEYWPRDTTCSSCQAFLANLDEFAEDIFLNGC", "T1 sequence (P01031 19-673 partner limits assumed)": "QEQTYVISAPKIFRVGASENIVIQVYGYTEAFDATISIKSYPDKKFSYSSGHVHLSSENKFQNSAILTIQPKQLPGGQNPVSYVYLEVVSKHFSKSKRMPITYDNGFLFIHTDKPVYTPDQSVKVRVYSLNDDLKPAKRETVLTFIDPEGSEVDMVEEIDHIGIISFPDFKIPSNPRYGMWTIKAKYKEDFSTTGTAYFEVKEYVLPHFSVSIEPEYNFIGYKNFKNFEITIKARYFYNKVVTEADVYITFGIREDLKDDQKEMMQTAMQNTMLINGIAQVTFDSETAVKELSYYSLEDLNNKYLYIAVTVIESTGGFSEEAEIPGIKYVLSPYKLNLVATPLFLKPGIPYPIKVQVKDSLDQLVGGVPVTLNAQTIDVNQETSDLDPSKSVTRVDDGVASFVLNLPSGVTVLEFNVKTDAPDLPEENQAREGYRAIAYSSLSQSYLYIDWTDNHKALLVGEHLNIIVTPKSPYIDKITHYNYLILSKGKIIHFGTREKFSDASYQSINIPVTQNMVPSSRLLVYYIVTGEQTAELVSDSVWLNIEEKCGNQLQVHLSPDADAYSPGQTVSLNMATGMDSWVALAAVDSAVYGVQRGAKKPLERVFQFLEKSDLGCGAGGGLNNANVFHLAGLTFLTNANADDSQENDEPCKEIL", "assay": "Haemolytic assay / TCC ELISA with EAC1-3b sheep erythrocytes and C5 depleted serum", "assay_type": "biochemical", "settings": "FIG. 1B", "procedure": "(§1) Panel A) The ELISA assay measures the amount of C5a fragment released in the supernatant after enzymatic cleavage of C5, using antibodies anti-C5 as described in example 6. […] Sheep erythrocytes sensitised with antibodies and coated until the C3b (EAC1-3b) complement step were added to the mixture of TS-A12 or TS-A12/22 and C5, and the mixture was further incubated for 30 minutes at 37° C. (panel B).\nSheep erythrocytes (SBRC: Sheep red blood cells) were sensitised with sub-agglutinating amounts of rabbit IgM (EA). […]\n(§2) The obtained anti-C5 scFv fragments were further characterised for their ability to inhibit the hemolytic activity of C5 or, in other words, to block conversion of the C5 component to C5a. […] At the end of this procedure, cell lysis was measured as percentage of the control of total lysis in distilled H2O (see FIG. 1, panel B). The inhibition of C5a and TCC production by the scFv TS-A12 and TS-A12/22 was measured by means of ELISA using the monoclonal antibody 17/5 as the capture antibody and antibody G25/2 as detection antibody according to what has been described in Opperman et al., 1991, Complement Inflamm. […] The presence of TCC was measured using antibody aE11 as the capture antibody and a biotinylated anti-C5 antibody (SIGMA-ALDRICH®) followed by alkaline phosphatase-conjugated streptavidin, as described by Tedesco et al. (1997, J Exp. Med. 185:1619)."}, "[2]": {"molecular_target": "T1, C5", "assay": "ELISA of C5a released after cleavage of C5 by C5 convertase", "assay_type": "biochemical", "settings": "FIG. 1A, classical pathway", "procedure": "as §1, §2"}},
  "data": [
    {"molecule": "TS-A12/22: anti-C5 scFv obtained from TS-A12 by VL chain shuffling; VH3/V-48 and Vλ3/V2-14; amino acid sequence SEQ ID NO:6 (protein, listed as Homo sapiens) scFv: DIRMTQSPDSLAVSLGERATINCKSSQSVLYSSNNKNYLAWYQQKPGQPPKLLIYWASTRESGVPDRFSGSGSGTDFTLTISSLQAEDVAVYYCQQYYSTPQLTFGGRTKVDIKSGGSTITSYNVYYTKLSSSGTQVQLQQSEGGVVQPGRSLRLSCAASGFTFSSYGMNWVRQAPGKGLEWVSYISSSSSTIYYADSVKGRFTISRDNSKNTLYLQMNSLRAEDTAVYYCARGPGMDVWGQGTTVTVSS", "values": [
      {"measurement": "inhibition of formation of TCC", "setting": "[1]", "value": "inhibit almost completely"},
      {"measurement": "inhibition of formation of C5a", "setting": "[2]", "value": "inhibit almost completely"}
    ]}
  ]
}
